This is an account of results in patent US20130052176, “APTAMER FOR NGF AND USE THEREOF” (SHIONOGI & CO., LTD, published 2013).

The target of data set [1] is T1, NGF (nerve growth factor) (human, UniProt P01138 P01138:122-241). Kind of data set: cell_activity; neurite outgrowth, NGF 0.38 nM; TF-1 IC50 0.044 nM. The note with it: tags: human NGF; chain copies: 2.
Data set [2] addresses T1, NGF (nerve growth factor). Kind of data set: cell_activity; neurite outgrowth, NGF 0.38 nM; TF-1 IC50 0.218 nM. The note with it: tags: human NGF; chain copies: 2. As to the method: (§1) The neurite outgrowth inhibitory activity of the aptamer obtained in Example 1 was evaluated by using Neuroscreen-1 cell, which is a subclone of PC-12 cells.
(§2) The cells (2500 cells per well) were cultured for one day in an RPMI-1640 medium containing 2.5% horse serum and 1.25% fetal bovine serum in a 96 well flat-bottom plate coated with collagen type IV. […] Two days later, the cytoplasm and nuclei were stained using Cellomics Neurite Outgrowth Kit (manufactured by Thermo Scientific), and neurite length per cell was measured by Cellomics ArrayScan VTI (manufactured by Thermo Scientific). With the neurite length per cell obtained by the addition of NGF alone as inhibitory activity 0%, and that of the cell obtained by NGF free culture for 2 days as inhibitory activity 100%, the inhibitory activity of the aptamer was calculated from the neurite length per cell obtained by culturing with the addition of NGF and the aptamer in mixture. When the inhibitory activity was 0% or below, ‘0%’ is indicated.

The target of data set [3] is T1, NGF (nerve growth factor). Kind of data set: cell_activity; neurite outgrowth, NGF 0.38 nM; TF-1 IC50 0.159 nM. The note with it: tags: human NGF; chain copies: 2. As to the method:
as §1, §2

Data set [4] concerns the target T1, NGF (nerve growth factor). Nature of the data set: cell_activity; neurite outgrowth, NGF 0.38 nM; TF-1 IC50 0.285 nM. The note with it: tags: human NGF; chain copies: 2. As to the method: as §1, §2
The target of data set [5] is T1, NGF (nerve growth factor). Kind of data set: cell_activity; neurite outgrowth, NGF 0.38 nM; TF-1 IC50 0.319 nM. As to conditions: tags: human NGF; chain copies: 2. The protocol:
as §1, §2

The target in data set [6] is T1, NGF (nerve growth factor). Kind of data set: cell_activity; neurite outgrowth, NGF 0.38 nM; TF-1 IC50 >0.3 nM. The note with it: tags: human NGF; chain copies: 2. The protocol:
as §1, §2

Data set [7] has as its target T1, NGF (nerve growth factor). Kind of data set: cell_activity; neurite outgrowth, NGF 0.38 nM; TF-1 IC50 0.064 nM. The note with it: tags: human NGF; chain copies: 2. The protocol:
as §1, §2

In data set [8] the target is T1, NGF (nerve growth factor). Kind of data set: cell_activity; neurite outgrowth, NGF 0.38 nM; TF-1 IC50 0.165 nM. The note with it: tags: human NGF; chain copies: 2. The protocol: as §1, §2
Data set [9] addresses T1, NGF (nerve growth factor). Nature of the data set: cell_activity; neurite outgrowth, NGF 0.38 nM; TF-1 IC50 0.104 nM. The note with it: tags: human NGF; chain copies: 2. As to the method:
as §1, §2

Data set [10] concerns the target T1, NGF (nerve growth factor). Nature of the data set: cell_activity; neurite outgrowth, NGF 0.38 nM; TF-1 IC50 0.122 nM. The note with it: tags: human NGF; chain copies: 2. The protocol:
as §1, §2

The target in data set [11] is T1, NGF (nerve growth factor). Kind of data set: cell_activity; neurite outgrowth, NGF 0.38 nM; TF-1 IC50 0.176 nM. The note with it: tags: human NGF; chain copies: 2. As to the method:
as §1, §2

Data set [12] addresses T1, NGF (nerve growth factor). Kind of data set: cell_activity; neurite outgrowth, NGF 1.1 nM; SPR binding; blocks NGF-TrkA; TF-1 IC50 >30 nM. As to conditions: tags: amine-coupled to CM5 chip in SPR; soluble in cell assays; chain copies: 2. As to the method:
as §1, §2
For orientation: Surface plasmon resonance follows binding to a sensor surface in real time, without labels.

Data set [13] addresses T1, NGF (nerve growth factor). Nature of the data set: cell_activity; neurite outgrowth, NGF 1.1 nM; TF-1 IC50 1.2 nM. As to conditions: tags: human NGF; chain copies: 2. As to the method:
as §1, §2

Data set [14] addresses T1, NGF (nerve growth factor). Nature of the data set: cell_activity; neurite outgrowth, NGF 1.1 nM; SPR binding; TF-1 IC50 3.2 nM. As to conditions: tags: amine-coupled to CM5 chip in SPR; soluble in cell assays; chain copies: 2. The protocol:
as §1, §2

The target in data set [15] is T1, NGF (nerve growth factor). Nature of the data set: cell_activity; neurite outgrowth, NGF 0.38 nM; SPR binding; TF-1 IC50 2.8 nM. As to conditions: tags: amine-coupled to CM5 chip in SPR; soluble in cell assays; chain copies: 2. As to the method: as §1, §2

T1 sequence (P01138 122-241, one chain of several): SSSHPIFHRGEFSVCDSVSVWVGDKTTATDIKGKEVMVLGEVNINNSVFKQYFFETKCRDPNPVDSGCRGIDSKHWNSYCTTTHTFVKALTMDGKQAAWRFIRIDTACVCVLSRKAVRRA

B1: aptamer ID 26(10) (ssRNA)
RNA: GGGAGACUCGCCAGAGUUGAAAGAAACCCAAAUAAGUGUGCGCAC
modifications: 5' and 3' idT; 2'-F all pyrimidines; 2'-OMe all purines except ribo g3,g5,g19,a20,a21,a22,a24
With B1, the IC50 (as a rule, the point on the concentration scale where inhibition reaches its midpoint) in [1] turned out to be 0.047 nM.

B2: aptamer ID 26(39) (ssRNA)
RNA: B1 RNA
modifications: as 26(19) (5' and 3' idT; 2'-F pyrimidines; 2'-OMe purines except ribo g3,g19,a20,a26) but c7 is 2'-OMe; PS between a25 and a26
Consider B2, for which it took 0.168 nM to reach half-maximal inhibition in data set [2] (IC50).

B3: aptamer ID 26(23) (mixed)
RNA: B1 RNA
modifications: as 26(19) (5' and 3' idT; 2'-F pyrimidines; 2'-OMe purines except ribo g3,g19,a20,a26) but c9 is dC
On to B3, for which the IC50 in [3] was 0.229 nM.

B4: aptamer ID 26(67) (ssRNA)
RNA: B1 RNA
modifications: 5' PEG40TS2 via ssH linker; 3' idT; 2'-F all pyrimidines; 2'-OMe purines except ribo g3,g19,a20,a26
B4 returned an IC50 in [4] of 0.153 nM.

B5: aptamer ID 26(70) (ssRNA)
RNA: B1 RNA
modifications: 5' PEG80TS4 via ssH linker; 3' idT; 2'-F all pyrimidines; 2'-OMe purines except ribo g3,g19,a20,a26
For the molecule B5, half-maximal inhibition in data set [5] (IC50) required 0.126 nM.

B6: aptamer ID 26(40) (ssRNA)
RNA: B1 RNA
modifications: as 26(19) (5' and 3' idT; 2'-F pyrimidines; 2'-OMe purines except ribo g3,g19,a20,a26) but c7 is 2'-OMe; PS between a26 and c27
In [6], B6 gave an IC50 of 0.247 nM.

B7: aptamer ID 26(65) (mixed)
RNA: B1 RNA
modifications: 5' PEG80TS4 via ssH linker; 3' idT; 2'-OMe purines except ribo g3,g19,a20,a26; 2'-F c28,c41,c43; dC27,dC29; other pyrimidines 2'-OMe
B7 displayed an IC50 in [7] of 0.091 nM.

B8: aptamer ID 26(30) (mixed)
RNA: B1 RNA
modifications: as 26(19) (5' and 3' idT; 2'-F pyrimidines; 2'-OMe purines except ribo g3,g19,a20,a26) but c45 is dC
B8 yielded an IC50 in data set [8] of 0.289 nM. In other words, the sub-nanomolar range.

B9: aptamer ID 26(19) (ssRNA)
RNA: B1 RNA
modifications: 5' and 3' idT; 2'-F all pyrimidines; 2'-OMe all purines except ribo g3,g19,a20,a26
Turning to B9, the IC50 in [9] was below 0.01 nM.

B10: aptamer ID 26(56) (mixed)
RNA: B1 RNA
modifications: 5' and 3' idT; 2'-OMe purines except ribo g3,g19,a20,a26; 2'-F c27,c28,c41,c43; dC29,dU39; other pyrimidines 2'-OMe
B10: the IC50 in [10] was 0.154 nM.

B11: aptamer ID 26(33) (ssRNA)
RNA: B1 RNA
modifications: as 26(19) (5' and 3' idT; 2'-F pyrimidines; 2'-OMe purines except ribo g3,g19,a20,a26) but c12 is 2'-OMe
For the molecule B11, in [11], the IC50 turned out to be 0.294 nM.

B12: aptamer ID 32 (ssRNA)
RNA: GGGAGAACUUCGACCAGAAGUCGAUAACGAACAAAACUCCCAAAGGAAUAUAUGUGCGCAUACA
modifications: 2'-F at all pyrimidines
Consider B12, for which the IC50 in [12] is 1 nM.

B13: aptamer ID 57(1) (mixed)
mixed: GGGAUAAAAAUAGAGTUUGATAAACACCUGUAUUAAAACCC
modifications: as ID 57 (5' cholesterol; 3' idT; dT16,dT21; 2'-F other pyrimidines and a37,a38; 2'-OMe purines except ribo a4,a7,g30) plus PS between 15 and 16
Regarding B13, the IC50 in [13] was below 3 nM.

B14: aptamer ID 27 (ssRNA)
RNA: GGGAGACUCGCAGAGUUGAAAGAAACCCAAAUAAAGUGUGCGCACA
modifications: 2'-F at all pyrimidines
As to B14, the IC50 in data set [14] was below 1 nM.

B15: aptamer ID 30 (ssRNA)
RNA: GGGAGACUCGCAGAGUUGAAAGAAACCCAAAUAGUGUGCGCAC
modifications: 2'-F at all pyrimidines
On to B15, for which the IC50 in [15] is below 0.3 nM.
